Experimental data published in the domain aggregation screens of Martell et al. (2025).

Assay: soluble fraction after stress (log2 fold change); higher = more stays soluble; pooled small domains, quantitative proteomics
Conditions: stress: 50 degC
Procedure, shortened: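 After stress at 50°C, the amount of each protein still soluble was measured. This was done on pooled custom libraries of small protein domains, using high-throughput quantitative proteomics. The figure given is a base-two log fold change and stands for aggregation propensity, with higher values meaning more protein stays in solution.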

Sequence	soluble fraction (log2)
HMDENDPYEILEIDRLASDDQVKAKYRALIRENHPDVLMAKGVPQEFIDLANRKMAVINAAYDRIEKEREF	-0.0184
HMDEPGAGYKWREDVLLRVMASHGIEESLRDDFVRHAVGFDNDDNMYLKKVEIENAAAAWVAN	-0.377
HMDETELLLQKAIATLPDKQRVVFNLKYFDEMKYEEMSELLETSVGALKASYHLAVKKIEQFFHDA	-0.643
HMDETYRRQLEDLAREHGAEYLHGILREVDPASAEAIHANNIKRVIRALEFYHLSGKKISEHNETERQ	0.158
HMDEVHYLADKERGTTWEEILIHADRDIKFLSLSATINNKNEFLEWLVSLRGTTSLIHSSTRPIPLEI	0.218
HMDEVLDQFVRGQIYGYIRANPGDIYSSIRDNLGLKNGVTTYHLDVLAREEYVYSEIDGTNRRFYPSGWEE	-3.2
HMDEVVVVERGGVQITMSEIDAKIMELPVDVRPSYLDSPERLQNFVSNLLLEKQAAQLKSQY	-0.153
HMDEWDPAILYVGLDYEDAAQIATRLATSGVPYRLSPDGTMITVPDDQVNNMRLTLAGEGFPH	-0.0702
HMDEYFNPETVVHYLRELFDTYRENGGNPFEWFHSTFESVNLNPQNYRKDLITTIEKALIEWIEIFEKQ	-0.0143
HMDFDPDVPSREDILQAFRDSKPPLTVNALISEFGLSRDASIVGLERRMGAMQRDGQLEQTPSGWQLSV	-0.158
HMDFFVLVGAYKTPDEAETIRAKIAFSGLDSSVSHGNDGRYRVRIGPFHSEGDARKAQSTLRANDIPGQII	-0.0926
HMDFGMPEELQKKLDKMPALKAAFEALTPGRQRGYIFYFSQPKQSKTRELRIEKSIEQIMNGKGLND	-0.115
HMDFIEYIISEESKGLRADQAISMENDKFSRSLIQKWIKKGRVLVNGRKIKPKDIVNLNDKITINPEESIN	-0.143
HMDFITPYEIEQGQYEGAELYEDGKFEEAFSLSSIAAQRGMKTAQYLLGIMFLKGEYVDQSLAIGMAW	-0.272
HMDFPYISGIEIAAIKNREFIRIETDKAQEIAIALDKSGIPFSARFSDAEMVLTYDGSYKEQVEDIIAKA	-0.0417
HMDFSERLARAMSLAGYTQGRLAKEVGMAQSSVNKLLNGANGSRKTVEIASVLGVRPEWLSTGAGEML	-0.371
HMDFSSRLKDERKRLKLSQAQLGEAGGVSKDAQLNYENGSRSPSASYLELIAREGVDVQFLLTGKRS	0.0732
HMDFSYTVGDIDEPIDSRGNSVIMLRKLAWGSNAEKLEIRRWIIDIDSERANKGVTFLTEEGPHNLVRV	0.128
HMDFTISDADFHRLVQFIQQNYGVALSKKRQLISSRLSHSLRELGYKDFRTFLEHLFSTRDPADLELVLNK	-0.989
HMDFYVILGVDRAASLSDVKRAYRRLARKHHPDINPGDPESDAFFMRVTEAYETLVDPDRRQEYDEHG	-1.03
HMDGEFINLKNRAGTEIEARILNYQNGQVKLERKDGVTFVVSISMFDAKSVIAINHKIAEIIDT	-1.37
HMDGIDALEPLMRRVFEALPQRRSMTIERAAVAAGLDEESVKIALVRLQLEGYVANDERGWHRSKSPH	-0.911
HMDGIGLRVRMIREGVGLTQKQLAEHLGMQRTALVQVEAGSRKLSASELIGVARFFNITVEQFLDPEK	-3.37
HMDGIPVPDVKGTVEAEATATLKNSGFEVTKTQDFSDTVEAGKVISQNPAGGSSAASGSSVTLVISQGPN	0.0569
HMDGISANAVKALIESLIAGEDKRKPLSDQAMSDRLALQGIVLARRTVAKYREELNFPPAHQRKQK	-0.572

Sequence	soluble fraction (log2)
HMDGLPYPEAAEEPIAQVARNLGMDATRVSIALQEAKLIFRNLDETLAEIAANNGTTPQVVYDAIRHLEPP	-0.095
HMDGLTEQQADDILAFISIKGTNAEVLAALENYAGRNETFDTGLSELKVVASNLAAFGMPEENFVVDL	0.0102
HMDGPGDRLLIAIQENSMTQKKFAQLIGMSPNGLNSIIKGKKRLSRVLAIATERLTGVRADWILQNEQPK	0.0136
HMDGQPLSERQQEILRWVAEGLSNREIGERLNITPNTVRDHLSEVMRRLEVSNRTSAVSTAFHLGLLP	-0.115
HMDGRIRFRHAALHDPDVAARLHDYLTTSLPGVRSARVNSQTGSLLLEYDPEVLDRSTLLDLAARAESLL	-0.219
HMDGRSLSHATLEEIRIRAVQRVEAGESPEVVVKALGFSRPRIYEWLALYREGGLEALRAKPV	-0.505
HMDGSEYAGTVRLGDGTLQPVPRFETSNSETPKYLYLVMDVTHDPPVYILEHESAELKSVLGGLVLIGSYS	0.0759
HMDGTVRGKTTFQELLDWGVPQERIEAVLGGPIPAPGVVIKDYVTAQGKEFSAVRDALQAEVDAVLK	0.232
HMDGVLLDHLDGFVTTRRGVEAWLEQPTSFNKPSILLVAADGESTRRAIPSIAFGYDFASRHDIPAYDAG	-0.496
HMDGVPPAGSRIRLTVSTQVGDKEFEGTLVPPAGVDLLTLKLANGYNLSHSIADVREVVLIEEGLQGEEP	-0.0515
HMDGVSLLFKLMETLPEQQKTILHLRDVEQLEFAEIAKITNTSQANVRVALSRARKKIKDLLLKQY	-2.17
HMDGVYLKSLKQTEQHIHWSGYAQSNAWVSTLMRNLDASPWFESPLLIEIKAATINNSRSNEFDLNVRL	0.0711
HMDGYTVYTNWGSDTNVARSDQQIQSQIPQLSGATIVGVWTKPIATGGTSYKIRYRTNSGAFTEIDVDQ	-0.105
HMDHKTKLQEVLQKSGDVFIEYRLIKEEGPAHERIFWIEVYVDDQLIGTGQGKSKKLAEQAAAENALAALE	-0.252
HMDIEHREMKLQKLVITADSPLVGKTLKESNVRQRYNFMVVGVEEGQKNLTMINPNRRFEVGDIVWVVGEE	-0.0892
HMDIFGREAEVEQILQEVRFGDDPHYRLSIGILPVTGHAGAGKTALVRFIFHHEVARAEFTVRMWVHV	0.106
HMDIGKNIQTIRYANKLTQDQVIAKLNLMGISMSKSTYAKLETNRMNIKVSELVALAKIFHTDINAF	-2.43
HMDIGTYTVTASALNIRQYPTASSAKTGSYPNGSIVTIYEYLTDGSWGRTDDGWISMNYVSRRY	-2.01
HMDIHSEEYILGQNIRKYRLRLGWSQADLSNAVDIDRADISKYENGAKGIMSSTLLRKFAKALGVSMDALM	-2.76
HMDILPRMVASEMRAVGVPPERMTREEKGTVIRNLMNAGIHQMKGAVVEIARQLHLSEPTVYRYIKREKG	-0.327
HMDINMELGKNIRRLRKLNNLTQQSLANQMNRSKTLIALWEKGERDPSSIDLKRLSEIFNVRADDIIG	-0.689
HMDIRMLLSDREEEIMILLSKGLSISEAANRMQIGQASAATYLNRARRKLKAETVRQAVAIWTGD	-1.75
HMDISAFDTEFIISKFGGIRPMAQKLGVPVSTVQGWKQRQTIPQNRMGDILEAAKNYNLELTP	0.0856
HMDISPAAKQRLALIQPLLEKNAEAITDRKLRNAVAKDIANNQNTTVRRVLRLYYRYLATGQVM	0.0392
HMDIVIPIQVKNVSSGEVLDFPSIRAAARDLKFPKTTISLGVRYAGEKAYKGFVMRYRSDDPWPIVQES	-1.93

Sequence	soluble fraction (log2)
HMDIYLDEVNRKILHLLSQGIKTRSLREYINLSMSAIEKRKKHMKELFLVEDGKDETLLNEARNKGF	-1.43
HMDIYLTAFKTTSNQVTLNGIARSDLIISEFMRDIRDAKLFGEPVLQVIQNKNLNNVQARVFELVVPL	-0.263
HMDKATMRWEQIEKFLETHPYIMNADVRALFNVSAATANRILATLTTEGKLVKYREGGHWAYKY	-0.544
HMDKELILLWDRVKSKVWQMDIQDSQVANWFQRNYHLTVRLRDFDPPVPPDKFTAEQLASFIKDIERHT	-0.597
HMDKGMQTMIDNLHKNTGKTLEEWIALVNRANFAKHGEVISFLKEKHGLTHGYANLVAHRLK	0.113
HMDKINQEAIEDEAGLWLAKIDGRQLAQEEVRELIAWMRRSDFHREYLITLARQWDGMAALNKLATLFP	-0.976
HMDKLFNRQTLGGVELTQKQIEDLNAGKAIFVEGMQRKDGEVFSSYVKLDEATGRPSYTRYNPDSP	0.441
HMDKLSYALGLSMGHNFLGSGIKSLNVEDFAKGVEAVYKQEKPEISFDEAKKIINEFFSNLQDEIAE	-0.628
HMDKNLQYADTPKGKLREYIKNLPNGSTVNRQKLAEEFGIKKQSMGTVTEVFQEFPDKNFKFVNP	0.119
HMDKPVIEDVSFDDLAYMVGERVIIRTHLRSTRDGELKSFNRAGILVSLRNRPGMELEIPRSTVASAQVVW	-2.45
HMDKQEKIHKKKIIILEALKRLLQNDVYSRITVQAVADEAGFSKGGLLHYFPTKEEMYIEFMEY	-0.0218
HMDKRYYYRILGLVGEPTRDQIEAAYETRIAKLRSSDYGDDPLYARRKISEVTMAYKVLTGS	-0.281
HMDKSFLQSLHLIALGIVKNQMDPWELVNGWVEYYLKNKDKYIDHPNLKAVAVLKMKGLFIDHFRKS	-4.84
HMDKSHYEELGVSRTATHAEIRRAYRHLMRTLHPDSNDGRVDAVRITKVNEAWNVLSQSSSRNAYDKSQV	-0.38
HMDKTTIKNEQKKQILIFAEMNLFFKAKDVAELLGLQASRARYLLQELVKDGKIQGIGNNKGRKYQLI	-0.438
HMDKVEQLMQNPVIQEKMSEGDRELLRNASLVVLGRLEDDGSIIQRFVELFGEEAYERLKSELM	0.259
HMDLDIGSVLQASRGEKKISLRQLAERTGLTASMLSQIERNLVNPSINTLKVIAAALEIPMYKFFMG	-0.835
HMDLEMLEVEDTIKDLLSQHQKINAIKYYRNYMSEQLNVDMGLRQAKDTIDAIGRGATVDLSVGY	-0.0705
HMDLIEVLAQDTIKKIYNTYVAYKNKVDVFYVAFSGGKDSIVTLDLVQRTLPHNEFKVLFGDTGM	0.133
HMDLIFQKGDLVFSTEHNQRGIFYEYLEQGQAKISIEKQFFVVAARRLQLLTKREVLYPAGYDLDQLFV	-0.0465
HMDLKENQHILQISNKGVQMGNVLKDLIIQTLNITNGNQIKAAKLLAISRAKLRYRIEQLGINISGKNI	-0.215
HMDLKHNQITMRELLRNKQAYLLLYKEFPMFMTPAILQNIRPLTLQQIIQMVRPYISRPKLNMLLEQLENI	-0.124
HMDLMQRVIIVRPVMQGDYLTRAHLGLQTLSRNGGGGFTDIDDLVGRRAKKSLRAGLVVHNRHL	-0.694
HMDLPAEFSKPELETLFKRGKQSGELSLTEVRDALEAAQLPNKKTQTKVLKVLSDNAIHVLMDG	0.146
HMDLPDFTSRERDILARVVQGDSNERIAASLGVSVSTVKTHIGNILRKTGQTNRVRLIVWATRHL	-1.72
